Test results: patent publication US20240131153A1 (ABCENTRA, published 2024)

Target: oxidized LDL (oxLDL) (UniProt P04114 28-4563, limits assumed, oxidized LDL; kind of oxidation of the preparation used in the assay not stated)
Test: cell-based or functional assay

Sequence of oxidized LDL (oxLDL) (P04114 28-4563 limits assumed): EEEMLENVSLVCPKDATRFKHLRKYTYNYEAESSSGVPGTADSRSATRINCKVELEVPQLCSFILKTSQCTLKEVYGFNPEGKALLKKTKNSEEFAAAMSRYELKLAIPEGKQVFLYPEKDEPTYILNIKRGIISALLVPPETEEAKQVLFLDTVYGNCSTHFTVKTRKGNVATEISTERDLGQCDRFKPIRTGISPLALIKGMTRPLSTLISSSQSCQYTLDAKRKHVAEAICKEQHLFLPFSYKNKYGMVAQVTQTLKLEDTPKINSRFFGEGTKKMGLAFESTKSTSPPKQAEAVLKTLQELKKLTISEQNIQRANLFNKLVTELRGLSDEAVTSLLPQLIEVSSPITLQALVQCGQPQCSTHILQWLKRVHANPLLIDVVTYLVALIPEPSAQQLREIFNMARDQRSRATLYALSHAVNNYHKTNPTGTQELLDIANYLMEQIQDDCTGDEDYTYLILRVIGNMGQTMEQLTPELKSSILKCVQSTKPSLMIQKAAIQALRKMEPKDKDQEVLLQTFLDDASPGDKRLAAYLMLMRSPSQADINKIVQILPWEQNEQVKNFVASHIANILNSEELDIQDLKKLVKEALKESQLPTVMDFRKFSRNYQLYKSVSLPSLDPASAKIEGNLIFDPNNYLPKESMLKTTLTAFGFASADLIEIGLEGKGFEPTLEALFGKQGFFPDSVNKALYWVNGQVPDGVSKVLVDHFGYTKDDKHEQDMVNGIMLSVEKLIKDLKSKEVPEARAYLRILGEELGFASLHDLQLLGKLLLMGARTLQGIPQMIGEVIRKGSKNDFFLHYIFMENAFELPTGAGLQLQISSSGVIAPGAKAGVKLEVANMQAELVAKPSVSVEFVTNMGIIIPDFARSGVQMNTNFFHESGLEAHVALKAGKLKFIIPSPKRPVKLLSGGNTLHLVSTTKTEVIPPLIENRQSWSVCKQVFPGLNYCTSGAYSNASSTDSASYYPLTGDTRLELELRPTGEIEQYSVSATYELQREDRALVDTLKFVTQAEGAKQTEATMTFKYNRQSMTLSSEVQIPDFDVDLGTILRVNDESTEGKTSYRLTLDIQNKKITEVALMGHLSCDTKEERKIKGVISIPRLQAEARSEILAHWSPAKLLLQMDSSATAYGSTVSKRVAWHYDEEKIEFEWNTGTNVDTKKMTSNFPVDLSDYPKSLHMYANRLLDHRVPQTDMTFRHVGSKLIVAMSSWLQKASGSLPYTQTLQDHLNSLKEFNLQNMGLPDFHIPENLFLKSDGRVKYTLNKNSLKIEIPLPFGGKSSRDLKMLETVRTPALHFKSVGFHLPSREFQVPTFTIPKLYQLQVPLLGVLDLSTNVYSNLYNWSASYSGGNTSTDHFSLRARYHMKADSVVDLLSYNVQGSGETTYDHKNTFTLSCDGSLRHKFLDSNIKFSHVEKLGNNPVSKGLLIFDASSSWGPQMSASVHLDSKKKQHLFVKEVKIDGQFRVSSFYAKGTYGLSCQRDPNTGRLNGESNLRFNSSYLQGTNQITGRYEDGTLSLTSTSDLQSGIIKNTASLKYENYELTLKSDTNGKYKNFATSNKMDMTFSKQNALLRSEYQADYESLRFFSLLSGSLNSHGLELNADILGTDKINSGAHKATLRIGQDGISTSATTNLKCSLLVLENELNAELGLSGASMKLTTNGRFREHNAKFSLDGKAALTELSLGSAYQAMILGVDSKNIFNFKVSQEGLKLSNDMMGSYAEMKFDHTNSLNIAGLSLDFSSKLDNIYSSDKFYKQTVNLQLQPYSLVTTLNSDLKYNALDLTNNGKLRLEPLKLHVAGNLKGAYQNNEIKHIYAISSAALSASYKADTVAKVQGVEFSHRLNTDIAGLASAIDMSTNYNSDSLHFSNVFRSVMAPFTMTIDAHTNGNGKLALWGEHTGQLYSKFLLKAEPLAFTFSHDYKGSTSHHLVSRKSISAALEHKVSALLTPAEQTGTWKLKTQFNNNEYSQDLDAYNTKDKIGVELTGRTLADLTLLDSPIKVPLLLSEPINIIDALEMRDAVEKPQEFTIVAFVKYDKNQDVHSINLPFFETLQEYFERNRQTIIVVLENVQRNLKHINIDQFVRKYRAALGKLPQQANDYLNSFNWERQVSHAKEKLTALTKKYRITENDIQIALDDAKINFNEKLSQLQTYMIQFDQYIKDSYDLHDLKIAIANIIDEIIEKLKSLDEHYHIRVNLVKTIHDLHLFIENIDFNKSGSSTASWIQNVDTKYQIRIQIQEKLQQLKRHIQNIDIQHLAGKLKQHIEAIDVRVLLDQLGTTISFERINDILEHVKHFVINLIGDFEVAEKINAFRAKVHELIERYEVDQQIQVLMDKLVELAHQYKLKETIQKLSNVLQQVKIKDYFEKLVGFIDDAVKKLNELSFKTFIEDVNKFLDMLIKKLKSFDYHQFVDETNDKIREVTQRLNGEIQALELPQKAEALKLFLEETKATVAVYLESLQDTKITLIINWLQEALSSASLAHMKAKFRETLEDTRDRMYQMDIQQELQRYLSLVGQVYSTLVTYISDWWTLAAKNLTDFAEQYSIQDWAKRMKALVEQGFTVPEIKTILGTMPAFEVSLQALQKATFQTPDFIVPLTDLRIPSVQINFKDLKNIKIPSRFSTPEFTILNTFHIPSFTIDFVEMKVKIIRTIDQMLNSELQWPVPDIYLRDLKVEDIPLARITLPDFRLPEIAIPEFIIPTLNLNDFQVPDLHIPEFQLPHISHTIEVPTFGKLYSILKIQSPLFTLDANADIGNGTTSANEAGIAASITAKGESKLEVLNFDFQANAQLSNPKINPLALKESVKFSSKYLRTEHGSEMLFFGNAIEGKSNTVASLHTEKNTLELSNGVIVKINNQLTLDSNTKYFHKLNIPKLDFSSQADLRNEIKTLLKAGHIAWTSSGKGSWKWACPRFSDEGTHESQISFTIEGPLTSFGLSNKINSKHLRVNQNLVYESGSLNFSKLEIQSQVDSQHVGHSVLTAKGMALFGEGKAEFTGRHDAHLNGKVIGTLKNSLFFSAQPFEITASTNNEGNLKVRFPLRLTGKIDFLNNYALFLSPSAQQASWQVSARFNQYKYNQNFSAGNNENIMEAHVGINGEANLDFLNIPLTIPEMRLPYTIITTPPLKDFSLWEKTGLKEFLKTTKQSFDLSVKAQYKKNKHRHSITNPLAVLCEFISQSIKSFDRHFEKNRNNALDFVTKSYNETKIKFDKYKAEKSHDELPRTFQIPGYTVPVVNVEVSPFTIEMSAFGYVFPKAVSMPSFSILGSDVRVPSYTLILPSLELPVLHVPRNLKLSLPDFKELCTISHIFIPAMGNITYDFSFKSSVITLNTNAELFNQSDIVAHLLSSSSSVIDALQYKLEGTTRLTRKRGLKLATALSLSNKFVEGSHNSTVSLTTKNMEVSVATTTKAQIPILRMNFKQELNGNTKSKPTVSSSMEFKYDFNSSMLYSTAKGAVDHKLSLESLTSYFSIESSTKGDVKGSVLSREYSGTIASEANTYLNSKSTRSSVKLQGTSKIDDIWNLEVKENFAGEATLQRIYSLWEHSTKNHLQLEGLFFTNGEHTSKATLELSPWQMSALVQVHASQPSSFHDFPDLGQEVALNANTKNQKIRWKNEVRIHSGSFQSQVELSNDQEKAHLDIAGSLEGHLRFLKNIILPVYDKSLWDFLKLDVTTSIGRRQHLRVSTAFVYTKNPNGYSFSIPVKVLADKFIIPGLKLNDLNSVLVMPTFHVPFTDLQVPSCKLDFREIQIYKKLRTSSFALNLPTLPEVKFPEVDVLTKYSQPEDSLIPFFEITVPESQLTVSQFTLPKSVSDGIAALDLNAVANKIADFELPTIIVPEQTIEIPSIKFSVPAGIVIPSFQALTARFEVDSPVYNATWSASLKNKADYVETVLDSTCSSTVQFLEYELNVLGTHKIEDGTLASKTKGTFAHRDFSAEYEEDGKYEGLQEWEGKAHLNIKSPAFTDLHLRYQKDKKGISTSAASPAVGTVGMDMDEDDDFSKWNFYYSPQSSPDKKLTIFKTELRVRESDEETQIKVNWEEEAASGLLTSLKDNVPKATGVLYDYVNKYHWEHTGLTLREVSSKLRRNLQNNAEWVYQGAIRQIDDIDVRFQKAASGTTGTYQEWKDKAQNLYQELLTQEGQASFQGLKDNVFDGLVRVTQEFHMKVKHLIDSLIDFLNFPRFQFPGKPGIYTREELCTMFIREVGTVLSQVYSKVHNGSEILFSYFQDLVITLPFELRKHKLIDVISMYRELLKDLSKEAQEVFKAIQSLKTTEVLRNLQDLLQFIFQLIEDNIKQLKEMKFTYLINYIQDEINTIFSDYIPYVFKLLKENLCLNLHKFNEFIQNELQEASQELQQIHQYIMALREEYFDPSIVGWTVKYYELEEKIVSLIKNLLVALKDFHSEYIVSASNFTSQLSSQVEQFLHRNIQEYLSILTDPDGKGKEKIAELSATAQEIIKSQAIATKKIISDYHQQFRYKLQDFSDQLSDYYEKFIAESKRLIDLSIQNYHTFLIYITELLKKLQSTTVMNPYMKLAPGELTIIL

IC50 for MCP-1 inhibition: ~10 nM
B1: orticumab (antibody, human IgG1, lambda, V domains shown)
VH: EVQLLESGGGLVQPGGSLRLSCAASGFTFSNAWMSWVRQAPGKGLEWVSSISVGGHRTYYADSVKGRSTISRDNSKNTLYLQMNSLRAEDTAVYYCARIRVGPSGGAFDYWGQGTLVTVSS
VL: QSVLTQPPSASGTPGQRVTISCSGSNTNIGKNYVSWYQQLPGTAPKLLIYANSNRPSGVPDRFSGSKSGTSASLAISGLRSEDEADYYCASWDASLNGWVFGGGTKLTVLG
